Where a chain is given by its changes, count along the chain named. In names and notes the source's numbering stands.

Results on 20 molecules are retold here after patent US20250277029A1 (Amgen, published 2025).

B1: LIBC528131-1 (antibody, V domains shown)
VH: QVQLQESGPGLVKPSQTLSLTCTVSGGSIRRGGDYWSWIRQHPGKGLEWIGHIYQTGQTAYNPNLEGRATISVNTYKNQFSLKLSSVTAADTAVYYCARDYDILTGYSYYYYGMDVWGQGTTVTVSS
VL: EIVLTQSPATLSLSPGERATLSCRASQSVSSYLGWYQQKPGQAPRLLIYGASSRATGIPDRFSGSGSGTDFTLTISRLEPEDFAVYYCQQYGSSPRTFGQGTKVEIKR
notes: VK3 LC
B2: LIBC527912-1 (antibody, V domains shown)
VH: B1 VH with H52Y, A60K, L65F
VL: DIQLTQSPSSLSASVGDRVTITCRASQSISSYLNWYQQKPGKAPKLLIYAASSLRSGVPSRFSGSGSGTDFTLTISSLQPEDFATYYCQQYSNYPLTFGGGTRVEIKR
B3: LIBC528116-1 (antibody, IgG1, V domains shown)
VH: QVQLQESGPGLVKPSQTLSLTCTVSGGSIRRGGDYWAWIRQHPGKGLEWIGHVYYTGSTNYNPRFKDRATISVNTYKNQFSLKLSSVTAADTAVYYCARNYDTVTGYSYYYYGMDVWGQGTTVTVSS
VL: B2 VL with S10T, S31N, R55H, T85S, S92Q, N93S, G100Q, R103K
notes: also called 37940-4
B4: LIBC527879-1 (antibody, V domains shown)
VH: B1 VH with S37G, T56S, Q58S, A60N, N64K, E66K, G67S, N74D, L104F
VL: B2 VL with S30I
B5: LIBC527827-1 (antibody, V domains shown)
VH: B1 VH with S37G, I53V, T56S, N64K, L65F, G67N, N74K, D100N, I103T, Y107H
VL: B2 VL with L4M, S10T, S31N, R55H, T85S, S92Q, N93S, G100Q, R103K
notes: also called LIBC527827-1 + VK1 germline fix(es)
B6: LIBC528141-1 (antibody, V domains shown)
VH: B1 VH with I53V, Q58S, A60K, N64R, L65F, E66K
VL: B2 VL with S10T, S31N, R55H, T85S, S92Q, N93S, G100Q, R103K
B7: LIBC527984-1 (antibody, V domains shown)
VH: B1 VH with Q58K, A60N, L65F, E66K, G67S
VL: B2 VL with L4M, S10T, S31N, R55H, T85S, S92Q, N93S, G100Q, R103K
notes: also called LIBC527984-1 + VK1 germline fix(es)
B8: LIBC527869-1 (antibody, V domains shown)
VH: B3 VH with S28N, V53I, Y55H, S58K, R64S, D67G, N74K, V104L, T105S, Y107N
VL: B2 VL with S10T, S31N, R55H, T85S, S92Q, N93S, G100Q, R103K
notes: also called LIBC527869-1 + VK1 germline fix(es)
B9: LIBC528169-1 (antibody, V domains shown)
VH: B1 VH with T56S, Q58S, A60K, N64S, L65F, G67D
VL: B2 VL with S10T, S31N, R55H, T85S, S92Q, N93S, G100Q, R103K
notes: also called LIBC528169-1 + VK1 germline fix(es)
B10: LIBC527968-1 (antibody, V domains shown)
VH: B1 VH with T56S, Q58S, A60K, N64S, L65F, E66K, G67D
VL: B2 VL with S10T, S31N, R55H, T85S, S92Q, N93S, G100Q, R103K
notes: also called LIBC527968-1 + VK1 germline fix(es)
B11: LIBC527906-1 (antibody, V domains shown)
VH: B1 VH with S37G, Q58S, A60N, L65F, E66K, G67D, N74D
VL: B2 VL with S10T, S31N, R55H, T85S, S92Q, N93S, G100Q, R103K
notes: also called LIBC527906-1 + VK1 germline fix(es)
B12: LIBC523797-1 (antibody, V domains shown)
VH: B1 VH with I53V, Q55Y, Q58S, A60K, L65F, E66K
VL: DIVMTQSPLSLPVTPGEPASISCRSSQSLLTSYGINYVDWYLQKPGQSPQLLIYQGSNRASGVPDRFSGSGSGTDFTLKISRVEAEDVGVYYCRQAVGLPRTFGQGTKVEIKR
notes: Expressed as IgG1 SEFL2 mAb
B13: LIBC523857-1 (antibody, V domains shown)
VH: B1 VH with N64R
VL: B12 VL with T31S, Y33T, I35A, V38L, Q55L, G98E
B14: LIBC523603-1 (antibody, V domains shown)
VH: B1 VH with S37A, I53V, T56S, L65F, G67N, I103A, L104V, T105S
VL: B12 VL with T31S, I35N
B15: LIBC523670-1 (antibody, V domains shown)
VH: B1 VH with S37A, I53V, G67S, D100N, I103V, T105S
VL: B12 VL with I35A, V38L, R94M, V97L, G98Q, L99I
notes: also called LIBC523670-1 + VK2 germline fix
B16: LIBC523815-1 (antibody, V domains shown)
VH: B1 VH with T56S, A60K, N64S, E66K, G67D
VL: B12 VL with Y33S, I35A, Q55L, V97R, G98E, L99Q
B17: LIBC523862-1 (antibody, V domains shown)
VH: B1 VH with Q58S, N64S, E66K
VL: B12 VL with T31H, Y33T, I35A, Q55L, V97I, G98A
B18: LIBC523813-1 (antibody, V domains shown)
VH: B1 VH with I53V, Q55Y, N64K, L65F, E66K, G67D, N74K
VL: B12 VL with T31S, Y33S, I35A, Q55L, R94M, V97R, L99I
notes: also called LIBC523813-1 + VK2 germline fix
B19: LIBC523868-1 (antibody, V domains shown)
VH: B1 VH with I53V, Q55Y, T56E, Q58S, N64S, L65F, G67D
VL: B12 VL with Q55L, R94M, V97R, G98Q, L99I
B20: 10D10 HC D83K/LC N35Y (26970-1) (antibody, V domains shown)
VH: B1 VH with H52Y, Q55Y, T56S, Q58S, A60N, N64S, E66K, G67S, N74K, Y76S
VL: not shown
notes: Earlier 10D10 variant used as benchmark

T6 sequence (P47746 whole entry): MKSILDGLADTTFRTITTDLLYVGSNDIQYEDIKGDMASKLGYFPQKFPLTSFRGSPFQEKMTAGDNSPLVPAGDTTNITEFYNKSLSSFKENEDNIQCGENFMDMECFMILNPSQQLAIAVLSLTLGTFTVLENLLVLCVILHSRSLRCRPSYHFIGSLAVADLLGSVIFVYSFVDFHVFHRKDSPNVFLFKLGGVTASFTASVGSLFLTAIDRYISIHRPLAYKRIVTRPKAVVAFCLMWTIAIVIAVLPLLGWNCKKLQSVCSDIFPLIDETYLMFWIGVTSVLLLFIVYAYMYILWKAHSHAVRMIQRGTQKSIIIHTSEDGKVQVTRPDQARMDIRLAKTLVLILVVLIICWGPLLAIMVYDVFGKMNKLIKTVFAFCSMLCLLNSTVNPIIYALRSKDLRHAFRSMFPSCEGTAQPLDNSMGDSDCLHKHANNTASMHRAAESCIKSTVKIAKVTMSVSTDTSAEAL

The target of the first assay is T1, GFP-fused huCB1-SMALP (human CB1 in styrene maleic acid lipoparticles) (human, UniProt P21554 1-472).
T1 construct: Prepared as in Luna V. et al. 2018; also called huCB1-GFP-SMALP; wtCB1-SMALP; not shown: GFP fusion
T1 sequence (P21554 whole entry, the tested form may be a part): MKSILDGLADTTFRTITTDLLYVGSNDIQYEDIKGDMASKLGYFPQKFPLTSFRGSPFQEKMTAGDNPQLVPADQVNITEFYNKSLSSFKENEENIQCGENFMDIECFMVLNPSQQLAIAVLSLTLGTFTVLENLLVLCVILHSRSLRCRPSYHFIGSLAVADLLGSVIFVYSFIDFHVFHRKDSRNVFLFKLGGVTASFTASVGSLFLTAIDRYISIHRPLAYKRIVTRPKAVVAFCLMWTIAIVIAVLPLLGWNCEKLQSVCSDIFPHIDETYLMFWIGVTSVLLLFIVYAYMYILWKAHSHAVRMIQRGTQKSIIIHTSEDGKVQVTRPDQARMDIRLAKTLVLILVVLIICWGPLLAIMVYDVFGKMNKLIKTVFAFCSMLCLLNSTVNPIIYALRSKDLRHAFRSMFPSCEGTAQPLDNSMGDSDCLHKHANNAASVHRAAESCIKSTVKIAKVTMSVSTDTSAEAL
The assay can be described thus: flow cytometry, yeast-displayed IgG, GFP MFI.
With B1, the “100 nM huCB1-GFP-SMALP binding (normalized to 10D10N35Y)” value came to 3.68 fold.
The same measure, in the same setting: as for B2, the figure is 4.32 fold; as for B3, 5.8 fold.
On the same count and under the same terms, as for B4, the figure is 3.24 fold; as for B5, 4.99 fold; as for B6, 8.31 fold.
Same read-out and setting: as for B7, the figure is 4.85 fold; as for B8, 3.61 fold; as for B9, 4.58 fold.
Turning to B10, the “100 nM huCB1-GFP-SMALP binding (normalized to 10D10N35Y)” value amounted to 4.65 fold.
On the same count and under the same terms, as for B11, the figure is 3.79 fold.

The target in the next assay is T2, huCB1 nanodisc (CB1-ND) (human, UniProt P21554 99-414).
T2 construct: The His-tagged CB1 is embedded in a POPC lipid nanodisc with MSP1D1 scaffold protein (molar ratio 480:8:1); also called huCB1-ND; #CB1-008
T2 sequence (P21554 99-414 limits assumed): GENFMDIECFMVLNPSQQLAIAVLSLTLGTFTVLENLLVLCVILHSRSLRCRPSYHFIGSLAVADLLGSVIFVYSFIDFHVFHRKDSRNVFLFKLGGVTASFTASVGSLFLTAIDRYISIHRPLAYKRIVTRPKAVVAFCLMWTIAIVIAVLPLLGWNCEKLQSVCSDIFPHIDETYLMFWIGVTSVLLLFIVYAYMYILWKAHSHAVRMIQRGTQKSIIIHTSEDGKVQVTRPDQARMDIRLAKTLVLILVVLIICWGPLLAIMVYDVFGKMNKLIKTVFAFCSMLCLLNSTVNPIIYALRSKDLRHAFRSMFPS
Description: Octet BLI; antibody captured by anti-human Fc, CB1-nanodisc in solution, 1:1 model.
In the case of B12, the equilibrium dissociation constant (Kd) was 18 nM.

For the next assay, the target named is T3, His-tagged huCB1-ND (human CB1 in nanodisc) (human).
T3 construct: CB1 construct of Cell 167(3) (2016) 750-762 expressed in Sf9 cells; POPC:MSP1D1:CB1 480:8:1; also called CB1-nanodisc; huCB1-Nanodisc; not shown: histidine purification tag
T3 sequence (P21554 99-414): as the sequence (P21554 99-414 limits assumed) above
The assay can be described thus: flow cytometry, yeast-displayed IgG, binding/display ratio.
B13: the “relative binding to 0.2 nM huCB1-ND (relative to 10D10N35Y)” value (“relative binding to 0.2 nM huCB1-ND” below) worked out at 4.05 fold.
On the same count and under the same terms, as for B14, the figure is 6.05 fold; as for B15, 7.46 fold.
As for B16, the “relative binding to 0.2 nM huCB1-ND” value came to 6.15 fold.
With B17, the “relative binding to 0.2 nM huCB1-ND” value came to 5.07 fold.
Same read-out and setting: the figure for B18 is 3.38 fold; for B19 it is 6.28 fold.

In the next assay the target is T3, His-tagged huCB1-ND (human CB1 in …). The assay can be described thus: flow cytometry, yeast-displayed IgG, huCB1-ND over empty-ND.
Take B13: the “specific huCB1 binding (CB1 ND/Empty ND ratio)” value was 13.9 ratio.
Same read-out and setting: as for B14, the figure is 19.4 ratio.
For B15, the “specific huCB1 binding (CB1 ND/Empty ND ratio)” value was found to be 23 ratio.
Same read-out and setting: the figure for B16 is 14.8 ratio.
Take B17: the “specific huCB1 binding (CB1 ND/Empty ND ratio)” value came to 13.6 ratio.
As for B18, the “specific huCB1 binding (CB1 ND/Empty ND ratio)” value amounted to 5.79 ratio.
Regarding B19, the “specific huCB1 binding (CB1 ND/Empty ND ratio)” value was determined as 13.3 ratio.

The next assay has as its target T4, empty-ND (nanodisc without CB1).
T4 construct: its only protein is the nanodisc scaffold; also called Empty Nanodisc
The assay can be described thus: flow cytometry, yeast-displayed IgG, binding/display ratio.
On to B1, for which the “50.0 nM Empty Nanodisc binding (relative to 10D10N35Y)” value is 0.63 fold.
On the same count and under the same terms, the figure for B2 is 0.51 fold; for B4 it is 0.73 fold; for B5 it is 1.16 fold.
As for B6, the “50.0 nM Empty Nanodisc binding (relative to 10D10N35Y)” value worked out at 0.49 fold.
B7: the “50.0 nM Empty Nanodisc binding (relative to 10D10N35Y)” value was found to be 0.61 fold.
On the same count and under the same terms, as for B8, the figure is 0.97 fold.
Same read-out and setting: the figure for B9 is 0.68 fold.
Turning to B10, the “50.0 nM Empty Nanodisc binding (relative to 10D10N35Y)” value was 0.64 fold.
On to B11, for which the “50.0 nM Empty Nanodisc binding (relative to 10D10N35Y)” value worked out at 0.51 fold.

In a further assay the target is T3, His-tagged huCB1-ND (human CB1 in …). The description is as above. This is another data set of the same source.
B1: the “0.200 nM huCB1-Nanodisc binding (relative to 10D10N35Y)” value turned out to be 4.47 fold.
Take B2: the “0.200 nM huCB1-Nanodisc binding (relative to 10D10N35Y)” value amounted to 5.95 fold.
On the same count and under the same terms, as for B4, the figure is 5.75 fold; as for B5, 4.31 fold; as for B6, 6.2 fold.
On the same count and under the same terms, as for B7, the figure is 5.21 fold.
On the same count and under the same terms, as for B8, the figure is 4.15 fold.
On to B9, for which the “0.200 nM huCB1-Nanodisc binding (relative to 10D10N35Y)” value amounted to 4.82 fold.
In the case of B10, the “0.200 nM huCB1-Nanodisc binding (relative to 10D10N35Y)” value turned out to be 4.86 fold.
Turning to B11, the “0.200 nM huCB1-Nanodisc binding (relative to 10D10N35Y)” value was 8.02 fold.

The target in the next assay is human cannabinoid receptor 1 (huCB1), full length, expressed on cells (human, UniProt P21554 1-472). The assay can be described thus: cell-based or functional assay.
Chain of human cannabinoid receptor 1 (huCB1), full length, expressed on cells (P21554 whole entry): as the sequence (P21554 whole entry, the tested form may be a part) above
As for B12, the “Antagonist assay IC50 (nM), 2-AG” value was 2.9 nM; the “Antagonist assay IC50 (nM), Anandamide” value came out at 10.4 nM; the “Antagonist assay IC50 (nM), CP 55,940” value is 3.4 nM; the “Inverse agonist assay IC50” value turned out to be 14.1 nM.

The next assay concerns the target T1, GFP-fused huCB1-SMALP (human CB1 in …). The assay can be described thus: flow cytometry, yeast-displayed IgG, GFP MFI. This is another data set of the same source.
With B13, the “100 nM huCB1-SMALP binding (normalized to 10D10)” value worked out at 4.71 fold.
Still for that read-out and setting: as for B14, the figure is 4.05 fold.
Turning to B15, the “100 nM huCB1-SMALP binding (normalized to 10D10)” value was determined as 5.42 fold.
On the same count and under the same terms, as for B16, the figure is 4.55 fold.
The same measure, in the same setting: as for B17, the figure is 3.97 fold; as for B18, 6.32 fold.
For the molecule B19, the “100 nM huCB1-SMALP binding (normalized to 10D10)” value stood at 4.21 fold.

The target of the next assay is T5, human cannabinoid receptor type 2 (CB2) (human, UniProt P34972 1-360).
T5 construct: also called huCB2; full length hu CB2
T5 sequence (P34972 whole entry): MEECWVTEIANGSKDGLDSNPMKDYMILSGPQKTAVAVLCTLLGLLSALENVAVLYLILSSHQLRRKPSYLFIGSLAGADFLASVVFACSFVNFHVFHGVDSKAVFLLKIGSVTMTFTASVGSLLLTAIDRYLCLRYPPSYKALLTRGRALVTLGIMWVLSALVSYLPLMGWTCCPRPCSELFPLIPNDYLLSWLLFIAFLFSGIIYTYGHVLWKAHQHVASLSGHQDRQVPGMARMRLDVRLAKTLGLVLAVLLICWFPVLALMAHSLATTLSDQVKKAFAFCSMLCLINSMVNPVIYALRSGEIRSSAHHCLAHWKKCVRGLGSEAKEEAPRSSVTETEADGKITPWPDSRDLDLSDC
Description: fold over mock (Table 14).
Consider B20, for which the binding result is “no binding”.
The same measure, in the same setting: the entry for B3 is “no binding”.

A further assay has as its target T6, mouse CB1 (mouse, UniProt P47746 1-473).
T6 construct: also called muCB1; murine CB1
Description: fold over mock (Table 14).
On to B20, for which the binding result is “no binding”.
Regarding B3, the binding result is listed as “no binding”.
